± gives the standard deviation of the averaged measurements.
B1: library; a variant is named by its letters at N, in order (parent)
chain: GCUGUCACCGAGAAACUGUGAAGUAUAUCUUAAACCUGGGCACUUAAAAGAUAUAUGGAGUUAGUAGUGCAACCUGCUCGGUCUGAUGAGUCCNNNNNNGGACGAAACAGC

What was measured:
cyclic di-GMP [1] = variants of: B1; test: FACS-Seq fitted mean relative fluorescence mCherry/BFP without ligand (log10 relative fluorescence); HEK293T; ligand: cyclic di-GMP (c-di-GMP-II aptamer); higher = higher reporter protein expression; conditions: ligand present: no
In short: (§1)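 Fluorescence figures are normalized fitted normal means of sequenced bin counts. Enriched, lentivirally transduced HEK293T libraries with a ribozyme-switch mCherry reporter and EF1α-BFP were held 48 h with or without ligand, then sorted into 6 mCherry/BFP bins. PCR-amplified, barcoded genomic DNA from each bin was sequenced on MiSeq. Means of log10(mCherry/BFP) were scaled to five spiked-in control ribozymes.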

cyclic di-GMP [2] = variants of: B1; test: normalized RNA/DNA level without ligand (relative to sTRSVctl = 100) (log10 (% of sTRSVctl)); HEK293T; ligand: cyclic di-GMP (c-di-GMP-II aptamer); higher = less ribozyme self-cleavage, higher mRNA level; conditions: reporter: mCherry (pCS4076), ligand present: no
In short: (§2)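 HEK293T cells received ligand, where used, 1 h before being transfected with 4 µg per 6-well well of library plasmids encoding reporter-linked ribozyme switches. After 72 h, RNA was extracted with EDTA and sequenced. RNA level was derived from RNA reads per DNA read, normalized to a spiked-in non-cleaving sequence or the top sequences, then scaled and log-transformed. Values were ×100 then log10, the top set was 25 sequences, and the minimum was 100 DNA reads.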

cyclic di-GMP [3] = variants of: B1; test: FACS-Seq fitted mean relative fluorescence mCherry/BFP with ligand (log10 relative fluorescence); HEK293T; ligand: cyclic di-GMP (c-di-GMP-II aptamer); ligand concentration (+) FACS-Seq: 1 mM; higher = higher reporter protein expression; conditions: ligand present: yes
In short: as §1

cyclic di-GMP [4] = variants of: B1; test: normalized RNA/DNA level with ligand (relative to sTRSVctl = 100) (log10 (% of sTRSVctl)); HEK293T; ligand: cyclic di-GMP (c-di-GMP-II aptamer); ligand concentration (+) RNA-Seq: 1 mM; higher = less ribozyme self-cleavage, higher mRNA level; conditions: reporter: mCherry (pCS4076), ligand present: yes
In short: as §2

| Variant | FACS-Seq fitted mean (log10) (cyclic di-GMP [1]) | normalized RNA/DNA level without ligand (log10) (cyclic di-GMP [2]) | FACS-Seq fitted mean (log10) (cyclic di-GMP [3]) | normalized RNA/DNA level with ligand (log10) (cyclic di-GMP [4]) |
| --- | --- | --- | --- | --- |
| GCUGUCACCGAGAAACUGUGAAGUAUAUCUUAAACCUGGGCACUUAAAAGAUAUAUGGAGUUAGUAGUGCAACCUGCUCGGUCUGAUGAGUCCAUGAGAGGACGAAACAGC [AUGAGA] | -0.299 ± 0.14 | 1.35 ± 0.12 | -0.147 ± 0.0049 | 1.54 ± 0.15 |
| GCUGUCACCGAGAAACUGUGAAGUAUAUCUUAAACCUGGGCACUUAAAAGAUAUAUGGAGUUAGUAGUGCAACCUGCUCGGUCUGAUGAGUCCUAUGACGGACGAAACAGC [UAUGAC] | -0.234 ± 0.026 | 1.71 ± 0.057 | 0.133 ± 0.1 | 1.87 ± 0.1 |
| GCUGUCACCGAGAAACUGUGAAGUAUAUCUUAAACCUGGGCACUUAAAAGAUAUAUGGAGUUAGUAGUGCAACCUGCUCGGUCUGAUGAGUCCCGGUCCGGACGAAACAGC [CGGUCC] | -0.137 ± 0.077 | 1.8527 ± 0.0016 | 0.251 ± 0.017 | 1.96 ± 0.069 |
| GCUGUCACCGAGAAACUGUGAAGUAUAUCUUAAACCUGGGCACUUAAAAGAUAUAUGGAGUUAGUAGUGCAACCUGCUCGGUCUGAUGAGUCCGUCAAAGGACGAAACAGC [GUCAAA] | -0.258 ± 0.074 | 1.56 ± 0.036 | 0.0433 ± 0.047 | 1.73 ± 0.095 |
| GCUGUCACCGAGAAACUGUGAAGUAUAUCUUAAACCUGGGCACUUAAAAGAUAUAUGGAGUUAGUAGUGCAACCUGCUCGGUCUGAUGAGUCCAUGGAAGGACGAAACAGC [AUGGAA] | -0.588 ± 0.0092 | 1.33 ± 0.13 | -0.293 ± 0.033 | 1.53 ± 0.14 |
| GCUGUCACCGAGAAACUGUGAAGUAUAUCUUAAACCUGGGCACUUAAAAGAUAUAUGGAGUUAGUAGUGCAACCUGCUCGGUCUGAUGAGUCCCGGACAGGACGAAACAGC [CGGACA] | -0.421 ± 0.083 | 1.4 ± 0.13 | -0.265 ± 0.047 | 1.58 ± 0.085 |
| GCUGUCACCGAGAAACUGUGAAGUAUAUCUUAAACCUGGGCACUUAAAAGAUAUAUGGAGUUAGUAGUGCAACCUGCUCGGUCUGAUGAGUCCGAGCGUGGACGAAACAGC [GAGCGU] | -1.38 ± 0.089 | 1.814 ± 0.0041 | -1.2 ± 0.013 | 1.9 ± 0.052 |
| GCUGUCACCGAGAAACUGUGAAGUAUAUCUUAAACCUGGGCACUUAAAAGAUAUAUGGAGUUAGUAGUGCAACCUGCUCGGUCUGAUGAGUCCAAGGUAGGACGAAACAGC [AAGGUA] | -0.681 ± 0.028 | 1.4 ± 0.091 | -0.372 ± 0.038 | 1.57 ± 0.13 |
| GCUGUCACCGAGAAACUGUGAAGUAUAUCUUAAACCUGGGCACUUAAAAGAUAUAUGGAGUUAGUAGUGCAACCUGCUCGGUCUGAUGAGUCCUUGCGUGGACGAAACAGC [UUGCGU] | -0.322 ± 0.017 | 1.69 ± 0.035 | -0.00149 ± 0.0032 | 1.86 ± 0.084 |
| GCUGUCACCGAGAAACUGUGAAGUAUAUCUUAAACCUGGGCACUUAAAAGAUAUAUGGAGUUAGUAGUGCAACCUGCUCGGUCUGAUGAGUCCGUAUUGGGACGAAACAGC [GUAUUG] | -0.534 ± 0.043 | 1.53 ± 0.044 | -0.274 ± 0.037 | 1.71 ± 0.078 |
| GCUGUCACCGAGAAACUGUGAAGUAUAUCUUAAACCUGGGCACUUAAAAGAUAUAUGGAGUUAGUAGUGCAACCUGCUCGGUCUGAUGAGUCCGCUAGAGGACGAAACAGC [GCUAGA] | -0.35 ± 0.031 | 1.49 ± 0.043 | -0.116 ± 0.03 | 1.67 ± 0.099 |
| GCUGUCACCGAGAAACUGUGAAGUAUAUCUUAAACCUGGGCACUUAAAAGAUAUAUGGAGUUAGUAGUGCAACCUGCUCGGUCUGAUGAGUCCGAAAAAGGACGAAACAGC [GAAAAA] | -0.369 ± 0.068 | 1.41 ± 0.1 | -0.0537 ± 0.033 | 1.61 ± 0.12 |
| GCUGUCACCGAGAAACUGUGAAGUAUAUCUUAAACCUGGGCACUUAAAAGAUAUAUGGAGUUAGUAGUGCAACCUGCUCGGUCUGAUGAGUCCACCCUGGGACGAAACAGC [ACCCUG] | -0.354 ± 0.046 | 1.67 ± 0.022 | 0.0314 ± 0.09 | 1.83 ± 0.097 |

Source: the supplement of paper PMC6757056
